Data reported in US20170088624A1 (Janssen / Centocor, published 2017).
Blank lines part the entries; values can stand above or below the binder they belong to.

Key:
[1] = biological target: T1, Full length human CD40 (huCD40) on cells (human, UniProt P25942 21-277); assay: flow cytometry, HEK-Blue CD40L cells
T1 construct: CD40 on human mature DCs, human B cells, Raji cells and HEK-Blue CD40L cells (stably expressing human CD40); also called TNFRSF5

[2] = biological target: T1, Full length human CD40 (huCD40) on cells; assay: flow cytometry, human B cells
[3] = biological target: T1, Full length human CD40 (huCD40) on cells; assay: flow cytometry, human DCs
[4] = biological target: T1, Full length human CD40 (huCD40) on cells; assay: cell-based or functional assay
[5] = biological target: T1, Full length human CD40 (huCD40) on cells; assay: cell-based or functional assay; remark: listed apart in the source
[6] = biological target: T1, Full length human CD40 (huCD40) on cells; assay: flow cytometry, Raji cells
[7] = biological target: T1, Full length human CD40 (huCD40) on cells; assay: flow cytometry, human mature DCs
Description: (§1) Human monocytes were isolated from either frozen/fresh PBMC using CD14 negative isolation kit per manufacturer's protocol (MACS Miltenyi). Cyno monocytes were isolated from fresh PBMC using CD14 positive isolation kit per manufacturer's protocol (MACS Miltenyi). To generate DCs, monocytes were cultured for 5 days in complete media RPMI (Invitrogen) in the presence of 100 ng/ml human GM-CSF and human IL-4 (Peprotech) and media was replenished every 2 days. On day 5, DCs were stimulated with 100 ng/ml LPS (Sigma) for 24 hours. Cells were then stained with each of the tested CD40 antibody at different concentration in flow cytometry buffer (PBS+1% FBS; BD Bioscience) in 100 μl volume for 30 minutes on ice followed with two washes with flow buffer. Cells were then stained for additional 30 minutes on ice with APC-conjugated anti human IgG (Jackson ImmunoResearch) at the recommended dilution 1:100 and washed twice with flow buffer. Cells were analyzed for percent positive and Mean Fluorescence Intensity (MFI) to determine the antibody binding using Fortessa (BD Bioscience).
(§2) The experiments were conducted using assays described above. 20 antibodies were characterized further based on their binding to human DCs, cyno DCs, Raji cells and HEK-Blue™ CD40L cells.

[8] = biological target: T2, Macaca fascicularis (cyno) CD40 (cCD40) on cells (Macaca fascicularis (cynomolgus), UniProt P25942 21-277 (human entry)); assay: flow cytometry, cyno mature DCs
T2 construct: CD40 on cyno mature DCs
T2 chain: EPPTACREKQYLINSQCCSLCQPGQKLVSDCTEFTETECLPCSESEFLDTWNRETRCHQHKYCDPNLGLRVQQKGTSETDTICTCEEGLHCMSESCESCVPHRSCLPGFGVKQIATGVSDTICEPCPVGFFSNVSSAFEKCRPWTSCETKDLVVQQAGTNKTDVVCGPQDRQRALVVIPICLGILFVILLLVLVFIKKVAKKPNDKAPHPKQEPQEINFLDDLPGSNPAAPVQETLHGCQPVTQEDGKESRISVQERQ
Description: as §1, §2

[9] = biological target: T3, human CD40 (SPR analyte) (human, UniProt P25942 21-193); assay: SPR ProteOn XPR36, mAb captured by anti-human IgG Fc, CD40 as analyte, 25 C
T3 construct: also called huCD40-ECD
Description: (§3) Affinity measurements were performed using Surface Plasmon Resonance (SPR) using a ProteOn XPR36 system (BioRad). […] Approximately 5000 RU (response units) of mAbs were immobilized. The kinetic experiments were performed at 25° C. in running buffer (DPBS+0.01% P20+100 μg/ml BSA). To perform kinetic experiments, 200 RU of mAbs were captured followed by injections of analytes (human or cyno CD40) at 5 concentrations (in a 4-fold serial dilution). The association phase was monitored for 3 minutes at 50 μL/min, then followed by 15 minutes of buffer flow (dissociation phase). The chip surface was regenerated with two 18 second pulses of 100 mM H₃PO₄ (Sigma, Cat#7961) at 100 μL/min.
(§4) The collected data were processed using ProteOn Manager software. First, the data was corrected for background using inter-spots. Then, double reference subtraction of the data was performed by using the buffer injection for analyte injections. The kinetic analysis of the data was performed using a Langmuir 1:1 binding model. The result for each mAb was reported in the format of Ka (On-rate), Kd (Off-rate) and KD (equilibrium dissociation constant).
The parameters reported in this table were obtained from a 1:1 Langmuir binding model for all samples. Affinity, KD=kd/ka.

[10] = biological target: T1, Full length human CD40 (huCD40) on cells; assay: cell-based or functional assay; remark: listed apart in the source
[11] = biological target: T4, cyno CD40 (SPR analyte) (Macaca fascicularis (cynomolgus), UniProt P25942 21-193 (human entry), limits assumed); assay: SPR ProteOn XPR36, mAb captured by anti-human IgG Fc, cyno CD40 as analyte, 25 C
T4 construct: also called cCD40-ECD
T4 chain: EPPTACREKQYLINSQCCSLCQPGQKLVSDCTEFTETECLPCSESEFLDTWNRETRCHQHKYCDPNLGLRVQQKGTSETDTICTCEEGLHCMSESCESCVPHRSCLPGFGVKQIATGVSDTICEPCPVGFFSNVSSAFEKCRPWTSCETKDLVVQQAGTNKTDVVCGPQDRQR
Description: as §3, §4

[12] = biological target: T1, Full length human CD40 (huCD40) on cells; assay: flow cytometry, HEK-Blue CD40L cells; remark: listed apart in the source

T1 sequence (P25942 21-277): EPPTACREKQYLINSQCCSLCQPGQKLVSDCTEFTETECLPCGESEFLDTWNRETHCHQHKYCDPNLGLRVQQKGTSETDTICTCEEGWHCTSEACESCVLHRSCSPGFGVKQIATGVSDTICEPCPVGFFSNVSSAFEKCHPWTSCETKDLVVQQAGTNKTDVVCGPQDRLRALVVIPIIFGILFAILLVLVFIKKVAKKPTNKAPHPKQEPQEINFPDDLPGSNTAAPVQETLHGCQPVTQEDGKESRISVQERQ

- EC50 [1]: 0.162 µg/mL
- EC50 [2]: 0.159 µg/mL
- EC50 [3]: 0.438 µg/mL
- EC50, Human B cells (CD83) [4]: 0.0239 µg/mL
- EC50, Human DC (HLA-DR) [4]: 0.367 µg/mL
- EC50, agonistic activity on HEK-Blue™ CD40L cells (NF-κB/SEAP) [4]: 0.0751 µg/mL
B1: C40M102 (antibody, human IgG1, lambda, V domains shown)
VH: EVQLVESGGGLVQPGGSLRLSCAASGFTFSSYAMSWVRQAPGKGLEWVSIINNNVGRTYYADSVKGRFTISRDNSKNTLYLQMNSLRAEDTAVYYCAKEGGDYYYYGMDVWGQGTTVTVSS
VL: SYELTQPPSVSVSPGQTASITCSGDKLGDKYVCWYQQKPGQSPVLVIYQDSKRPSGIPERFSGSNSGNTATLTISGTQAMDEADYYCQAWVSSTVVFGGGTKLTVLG
notes: Variant of C40M18 (VH C40H48, VL C40L70); cloned as IgG1

- EC50 [1]: 0.177 µg/mL
- EC50 [2]: 0.11 µg/mL
- EC50 [3]: 0.253 µg/mL
- EC50, Human B cells (CD83) [4]: 0.0167 µg/mL
- EC50, Human DC (HLA-DR) [4]: 0.166 µg/mL
- EC50, agonistic activity on HEK-Blue™ CD40L cells (NF-κB/SEAP) [4]: 0.0308 µg/mL
B2: C40M104 (antibody, human IgG1, lambda, V domains shown)
VH: EVQLVESGGGLVQPGGSLRLSCAASGFTFSSYAMSWVRQAPGKGLEWVSIINNNVGRTYYADSVKGRFTISRDNSKNTLYLQMNSLRAEDTAVYYCAKEGGDYYYYGMDVWGQGTTVTVSS
VL: SYELTQPPSVSVSPGQTASITCSGDKLGDKYVSWYQQKPGQSPVVVIYQDSKRPSGIPERFSGSNSGNTATLTISGTQAMDEAYYYCQAWVSSTVVFGGGTKLTVLG
notes: Variant of C40M18 (VH C40H48, VL C40L68; LCDR1 cysteine mutated); cloned as IgG1

- EC50 [1]: 0.15 µg/mL
- B cells EC50, CD23 surface expression, with cross-linker [5]: 0.306 µg/mL
- B cells EC50, CD80 surface expression, with cross-linker [5]: 0.0481 µg/mL
- B cells EC50, CD83 surface expression, with cross-linker [5]: 0.0624 µg/mL
- B cells EC50, CD86 surface expression, with cross-linker [5]: 0.00873 µg/mL
- B cells EC50, HLA-DR surface expression, with cross-linker [5]: 0.0239 µg/mL
- EC50 [6]: 0.073 µg/mL
- EC50 [2]: 0.11 µg/mL
- EC50 [3]: 0.267 µg/mL
- EC50 [7]: 0.352 µg/mL
- EC50 [8]: 0.0389 µg/mL
- Kd [9]: 151 pM
- koff [9]: 0.000162 s⁻¹
- kon [9]: 1.07e+06 M⁻¹ s⁻¹
- DC EC50, CD80 surface expression, with cross-linker [10]: 0.0523 µg/mL
- DC EC50, CD83 surface expression, with cross-linker [10]: 0.0478 µg/mL
- DC EC50, CD86 surface expression, with cross-linker [10]: 0.0302 µg/mL
- DC EC50, HLA-DR surface expression, with cross-linker [10]: 0.0105 µg/mL
- Kd [11]: 71.2 pM
- koff [11]: 9.41e-05 s⁻¹
- kon [11]: 1.32e+06 M⁻¹ s⁻¹
- EC50, Human B cells (CD83) [4]: 0.0226 µg/mL
- EC50, Human DC (HLA-DR) [4]: 0.166 µg/mL
- EC50, agonistic activity on HEK-Blue™ CD40L cells (NF-κB/SEAP) [4]: 0.0696 µg/mL
- EC50 [12]: 0.126 µg/mL
B3: C40M18 (antibody, human IgG1, lambda, V domains shown)
VH: EVQLVESGGGLVQPGGSLRLSCAASGFTFSSYAMSWVRQAPGKGLEWVSIINNNVGRTYYADSVKGRFTISRDNSKNTLYLQMNSLRAEDTAVYYCAKEGGDYYYYGMDVWGQGTTVTVSS
VL: SYELTQPPSVSVSPGQTASITCSGDKLGDKYVCWYQQKPGQSPVVVIYQDSKRPSGIPERFSGSNSGNTATLTISGTQAMDEAYYYCQAWVSSTVVFGGGTKLTVLG
notes: Full-length IgG1/lambda; from OmniRat (OMT); VH C40H48, VL C40L64
